{
  "source": "paper PMC9260958",
  "origin": "cited, not measured here",
  "target": "Cys647 (UniProt position 647, LGEVHCGTNVR)",
  "assay": "chemical modification (pH dependence of enzyme inactivation kinetics)",
  "conditions": "not stated (the inactivator is not named in the sentence that gives the value)",
  "data": [
    {"substance": "Protein arginine deiminase 2 (peptidylarginine deiminase 2, PAD2) (Homo sapiens (inferred; not stated in the article))", "values": [
      {"measurement": "pKa", "result": "∼8.2"}
    ]}
  ]
}
